# Results as given in patent US10323078B2, “Isolated peptides and fragments thereof from fibrinogen for use as drugs, particularly in skin inflammatory diseases” (Universite Paris Descartes, priority 2015, dated 2019).
# B1: MKRMVSWSFHKLKTMKHLLLLLLCVFLVKSQGVNDNEEGFFSARGHRPLDKKREEAPSLRPAPPPISGGGYRARPAKAAATQKKVERKAPDAGGCLHADPDLGVLC (protein)
# chain: MKRMVSWSFHKLKTMKHLLLLLLCVFLVKSQGVNDNEEGFFSARGHRPLDKKREEAPSLRPAPPPISGGGRARPAKAAATQKKVERKAPDAGGCLHADPDLGVLCMKRMVSWSFHKLKTMKHLLLLLLCVFLVKSQGVNDNEEGFFSARGHRPLDKKREEAPSLRPAPPPISGGGYRARPAKAAATQKKVERKAPDAGGCLHADPDLGVLC
# modifications: GST fusion; fragment Fg1
# notes: fragment of Bß chain of human fibrinogen having 106 amino acids; recombinant GST-fused peptide expressed in E. coli
# Experiments:
# [1] = system: Pfg binding to fibrinogen; experiment: Inhibition of biotinylated Pfg binding to coated fibrinogen; design: species or system Propionibacterium acnes; details: biotinylated Pfg pretreated with increasing amount of recombinant peptide 1 h at 37° C.; fibrinogen coated 25 μg per well
# Experimental: FIG. 9: Dose-dependent inhibition of biotinylated Pfg binding to fibrinogen by fibrinogen-derived peptide. Biotinylated PFg (0.4 mg) was pretreated with increasing amount of recombinant peptides Fg1 (♦), Fg2 (▪) or BSA as control (●) for 1 h at 37° C., and the binding activity to coated fibrinogen on polystyrene plate (25 μg per well) was evaluated. Results are expressed as mean±SD. Each point was done in quadruplet.
# Since it has been shown that only Fg1 was able to recognize Pfg, biotinylated Pfg was pre-treated with various concentrations of purified Fg1 and tested its ability to recognize immobilized fibrinogen. Fg2 and BSA were used as neative controls (FIG. 9).
# HDF cells [2] = experiment: O2°− production by P. acnes-stimulated HDF; type: cell-based, human; details: 0.87 to 7 μM
# Experimental: (§1) For experiences of stimulation with P. acnes, cells were incubated with the P. acnes suspension adjusted at the appropriate concentration, pre-treated for 1 h at 37° C. or not with fibrinogen recombinant peptides Fg1 and Fg2 at the concentrations 0.87, 1.75, 3.5 or 7 μM for the desired period of time at 37° C. in 5% CO2.
# (§2) All cells lines (5·10^4 to 10^5 cells/well) were seeded in 96-well plates (Corning Costar, Brumath, France) and treated as previously described. After stimulation, cells were washed three times in PBS and incubated with 100 μl per wells of 5 μM DHE (for determination of O2^●−) or 5 μM H2-DCFDA (for determination of H2O2) for 30 min as described previously and fluorescence intensity was recorded every hour over a period of 5 h. Fluorescence excitation/emission maxima were for DHE: 480/610 nm and for H2-DCFDA: 507/525 nm. At the end of the experiment, the number of adherent cells was evaluated by the crystal violet assay as described below. O2^●−, and H2O2 were assayed by spectrofluorimetry on a Fusion spectrofluorimeter (PackardBell, Paris, France). Levels of ROS were calculated in each sample as follows: reactive oxygen species rate (arbitrary units/min/10^6 cells)=(fluorescence intensity [arbitrary units] at T5h—fluorescence intensity [arbitrary units] at To/300 minutes/number of adherent cells as measured by the crystal violet assay, and were expressed as arbitrary unit (A.U.).
# (§3) To assess the efficacy of Fg1 recombinant peptide, the production of O2^∘− and H2O2 by HaCaT cells NHDK, THP-1, MRC5 and HDF stimulated by pretreated P. acnes strains 6919, RON and PIE was measured. The amount of ROS produced was compared to that produced by the stimulated cells with untreated bacteria. Production baseline was obtained by measuring ROS on unstimulated cells. The production of IL-1ß, IL-8, IL-12 and TNF-α was also measured in all conditions cited above. The measurement of the production of ROS is performed by spectrofluorimetry in the presence of specific fluorochromes directly on the monolayer cell. Measurement of cytokine production was performed in parallel on the cell culture supernatant.
# (§4) Two sets of experiments were implemented: 1) The cells were stimulated (18 h at 37° C.) by P. acnes strains previously pretreated with Fg1 and Fg2 peptides at the final concentrations ranging from 0.87 to 7 μM for 1 h at 37° C.; and 2) The cells were pretreated first with Fg1 and Fg2 peptides at the final concentrations ranging from 0.87 to 7 μM for 24 h at 37° C. and stimulated (18 h at 37° C.) by P. acnes strains.
# HaCaT cells = experiment: H2O2 production by P. acnes-stimulated HaCaT (spectrofluorimetry, H2-DCFDA); type: cell-based, human; details: bacteria first pretreated, 0.87 to 7 μM
# Experimental: as §1, §2, §3, §4
# (§5) To assess the efficacy of the small Fg1-related peptide, the production of H2O2 by several cell lines (HaCaT, NHDK, THP-1, MRC5 and HDF) stimulated by three P. acnes strains 6919, RON and PIE was measured, in presence or not with the small peptides. The amount of H2O2 produced is compared to that produced by the stimulated cells with untreated bacteria. Production baseline is obtained by measuring H2O2 on unstimulated cells. The measurement of the production of H2O2 is performed by spectrofluorimetry in the presence of specific fluorochromes directly on the monolayer cell.
# (§6) Two sets of experiments have been implemented: • I) The cells are stimulated (18 h at 37° C.) by P. acnes strains previously pretreated with Fg1.1, Fg1.2, Fg1.3, Fg1.4, and Fg1.5 small peptides at the final concentrations ranging from 2.5 to 20 μM for 1 h at 37° C.; • II) The cells are pretreated first with the five small peptides at the final concentrations ranging from 2.5 to 20 μM for 24 h at 37° C. and stimulated (18 h at 37° C.) by P. acnes strains.
# NHDK cells = experiment: H2O2 production by P. acnes-stimulated NHDK; type: cell-based, human; details: 0.87 to 7 μM
# Experimental: as §1, §2, §3, §4, §5, §6
# HDF cells [3] = experiment: H2O2 production by P. acnes-stimulated HDF; type: cell-based, human; details: 0.87 to 7 μM
# Experimental: as §1, §2, §3, §4, §5, §6
# HDF cells [4] = experiment: TNF-α production by P. acnes-stimulated HDF (ELISA); type: cell-based, human; details: 0.87 to 7 μM
# Experimental: as §1
# (§7) Human IL-1ß, IL-8, IL-12, hBD-2, and TNF-α protein concentration was measured in the supernatants of stimulated cells using various ELISA Set kits (Ready-Set-Go kit from eBioscience for acne experiments, and for psoriasis experiments the Duo set IL-8 kit from R&D Systems and the BD-2 Human Development (hBD-2) from Peprotech) according to the manufacturer's instructions. We used serial dilutions of recombinant human IL-1ß, IL-8, IL-12 and TNF-α for standard curve. The optical density was determined at 450 nm at a wavelength correction of 540 nm.
# as §3, §4
# ThP1 cells = experiment: IL-12 production by P. acnes-stimulated ThP1 (ELISA); type: cell-based, human; details: P. acnes 6919, set I, bacteria first pretreated, 0.87 to 7 μM
# Experimental: as §1, §7
# To assess the efficacy of Fg1 recombinant peptide, the production of O2^∘− and H2O2 by HaCaT cells NHDK, THP-1, MRC5 and HDF stimulated by pretreated P. acnes strains 6919, RON and PIE was measured. The amount of ROS produced was compared to that produced by the stimulated cells with untreated bacteria. Production baseline was obtained by measuring ROS on unstimulated cells. The production of IL-1ß, IL-8, IL-12 and TNF-α was also measured in all conditions cited above. […]
# [5] = system: HaCaT, NHDK, THP-1, MRC5 and HDF; experiment: O2°− production by cells stimulated with P. acnes, overall statement for the five cell lines; type: cell-based, human; details: pretreatment of P. acnes strains; five cell lines and three strains tested
# Experimental: as §1
# as §2, with “O2^●−, and H2O2 were assayed by spectrofluorimetry on a Fusion spectrofluorimeter (PackardBell, Paris, France).” left out, “(A.U.). […]” for “(A.U.).”
# [6] = P. acnes 6919, set I, bacteria first pretreated
# [7] = P. acnes 6919, set II, cells first pretreated
# [8] = P. acnes PIE, set I, bacteria first pretreated
# [9] = P. acnes PIE, set II, cells first pretreated
# [10] = P. acnes RON, set I, bacteria first pretreated
# [11] = P. acnes RON, set II, cells first pretreated
molecule,measurement,setting,value
B1,Inhibition of the recognition between Pfg and human fibrinogen,[1],dramatically decreased
same,Inhibition of Superoxide anion (O2°−) production,HDF cells [2]; [6],pos
same,Inhibition of Superoxide anion (O2°−) production,HDF cells [2]; [7],pos
same,Inhibition of Superoxide anion (O2°−) production,HDF cells [2]; [8],pos
same,Inhibition of Superoxide anion (O2°−) production,HDF cells [2]; [9],pos
same,Inhibition of Superoxide anion (O2°−) production,HDF cells [2]; [10],pos
same,Inhibition of Superoxide anion (O2°−) production,HDF cells [2]; [11],pos
same,Inhibition of Hydrogen peroxide (H2O2) production,"HaCaT cells; P. acnes 6919, set I",pos
same,Inhibition of Hydrogen peroxide (H2O2) production,"HaCaT cells; P. acnes PIE, set I",pos
same,Inhibition of Hydrogen peroxide (H2O2) production,"HaCaT cells; P. acnes RON, set I",pos
same,Inhibition of Hydrogen peroxide (H2O2) production,NHDK cells; [6],pos
same,Inhibition of Hydrogen peroxide (H2O2) production,NHDK cells; [7],pos
same,Inhibition of Hydrogen peroxide (H2O2) production,NHDK cells; [8],pos
same,Inhibition of Hydrogen peroxide (H2O2) production,NHDK cells; [9],pos
same,Inhibition of Hydrogen peroxide (H2O2) production,NHDK cells; [10],pos
same,Inhibition of Hydrogen peroxide (H2O2) production,NHDK cells; [11],pos
same,Inhibition of Hydrogen peroxide (H2O2) production,HDF cells [3]; [6],pos
same,Inhibition of Hydrogen peroxide (H2O2) production,HDF cells [3]; [7],pos
same,Inhibition of Hydrogen peroxide (H2O2) production,HDF cells [3]; [8],pos
same,Inhibition of Hydrogen peroxide (H2O2) production,HDF cells [3]; [9],pos
same,Inhibition of Hydrogen peroxide (H2O2) production,HDF cells [3]; [10],pos
same,Inhibition of Hydrogen peroxide (H2O2) production,HDF cells [3]; [11],pos
same,Inhibition of Interleukine TNF alpha (TNF-α) production,HDF cells [4]; [6],pos
same,Inhibition of Interleukine TNF alpha (TNF-α) production,HDF cells [4]; [7],pos
same,Inhibition of Interleukine TNF alpha (TNF-α) production,HDF cells [4]; [8],pos
same,Inhibition of Interleukine TNF alpha (TNF-α) production,HDF cells [4]; [9],pos
same,Inhibition of Interleukine TNF alpha (TNF-α) production,HDF cells [4]; [10],pos
same,Inhibition of Interleukine TNF alpha (TNF-α) production,HDF cells [4]; [11],pos
same,Inhibition of Interleukine 12 (IL-12) production,ThP1 cells,pos
same,Inhibition of O2°− production,[5],in a dose-dependent manner
